# B1: Histone chaperone RTT106 (Saccharomyces cerevisiae), P40161 (parent)
# chain: MSKLFLDELPESLSRKIGTVVRVLPSSLEIFEELYKYALNENSNDRSGRHKKPRIDVSSDLLKTDEISETNTIFKLEGVSVLSPLRKKLDLVFYLSNVDGSPVITLLKGNDRELSIYQLNKNIKMASFLPVPEKPNLIYLFMTYTSCEDNKFSEPVVMTLNKENTLNQFKNLGLLDSNVTDFEKCVEYIRKQAILTGFKISNPFVNSTLVDTDAEKINSFHLQCHRGTKEGTLYFLPDHIIFGFKKPILLFDASDIESITYSSITRLTFNASLVTKDGEKYEFSMIDQTEYAKIDDYVKRKQMKDKSMSEELKAKSKSKGQATDGTADQPSILQEATRQMQDEKKAGVFSDDDEENDQNFEAESDLSDGSGQESSDGAEDGEEAEEDDEEDDEEEDKKGQSALNRDNSFASINGQPEQELQYKEFKEPLELEDIPIEIDNDDDEDDEDGSGVEYD
# Variants of: B1
# Conditions: with h3_yeast HHT1, P61830
row,Variant,effect of a mutation on the interaction
1,MSKLFLDELPESLSRKIGTVVRVLPSSLEIFEELYKYALNENSNDRSGRHKKPRIDVSSDLLKTDEISETNTIFKLEGVSVLSPLRKKLDLVFYLSNVDGSPVITLLKGNDRELSIYQLNKNIKMASFLPVPEKPNLIYLFMTYTSCEDNKFSEPVVMTLNKENTLNQFKNLGLLDSNVTDFEKCVEYIRKQAILTGFKISNPFVNSTLVDTDAEKINSFHLQCHRGTKEGTLYFLPDHIIFGFKKPILLFDASDIESITASSITRLTFNASLVTKDGEKYEFSMIDQTEYAKIDDYVKRKQMKDKSMSEELKAKSKSKGQATDGTADQPSILQEATRQMQDEKKAGVFSDDDEENDQNFEAESDLSDGSGQESSDGAEDGEEAEEDDEEDDEEEDKKGQSALNRDNSFASINGQPEQELQYKEFKEPLELEDIPIEIDNDDDEDDEDGSGVEYD [Y261A],disrupting interaction strength
2,MSKLFLDELPESLSRKIGTVVRVLPSSLEIFEELYKYALNENSNDRSGRHKKPRIDVSSDLLKTDEISETNTIFKLEGVSVLSPLRKKLDLVFYLSNVDGSPVITLLKGNDRELSIYQLNKNIKMASFLPVPEKPNLIYLFMTYTSCEDNKFSEPVVMTLNKENTLNQFKNLGLLDSNVTDFEKCVEYIRKQAILTGFKISNPFVNSTLVDTDAEKINSFHLQCHRGTKEGTLYFLPDHIIFGFKKPILLFDASDIESITYSSITRLTANASLVTKDGEKYEFSMIDQTEYAKIDDYVKRKQMKDKSMSEELKAKSKSKGQATDGTADQPSILQEATRQMQDEKKAGVFSDDDEENDQNFEAESDLSDGSGQESSDGAEDGEEAEEDDEEDDEEEDKKGQSALNRDNSFASINGQPEQELQYKEFKEPLELEDIPIEIDNDDDEDDEDGSGVEYD [F269A],disrupting interaction strength
3,MSKLFLDELPESLSRKIGTVVRVLPSSLEIFEELYKYALNENSNDRSGRHKKPRIDVSSDLLKTDEISETNTIFKLEGVSVLSPLRKKLDLVFYLSNVDGSPVITLLKGNDRELSIYQLNKNIKMASFLPVPEKPNLIYLFMTYTSCEDNKFSEPVVMTLNKENTLNQFKNLGLLDSNVTDFEKCVEYIRKQAILTGFKISNPFVNSTLVDTDAEKINSFHLQCHRGTKEGTLYFLPDHIIFGFKKPILLFDASDIESITYSSITRLTFNASLVTKDGEKYEFSMIDQTEAAKIDDYVKRKQMKDKSMSEELKAKSKSKGQATDGTADQPSILQEATRQMQDEKKAGVFSDDDEENDQNFEAESDLSDGSGQESSDGAEDGEEAEEDDEEDDEEEDKKGQSALNRDNSFASINGQPEQELQYKEFKEPLELEDIPIEIDNDDDEDDEDGSGVEYD [Y291A],disrupting interaction strength
4,MSKLFLDELPESLSRKIGTVVRVLPSSLEIFEELYKYALNENSNDRSGRHKKPRIDVSSDLLKTDEISETNTIFKLEGVSVLSPLRKKLDLVFYLSNVDGSPVITLLKGNDRELSIYQLNKNIKMASFLPVPEKPNLIYLFMTYTSCEDNKFSEPVVMTLNKENTLNQFKNLGLLDSNVTDFEKCVEYIRKQAILTGFKISNPFVNSTLVDTDAEKINSFHLQCHRGTKEGTLYFLPDHIIFGFKKPILLFDASDIESITYSSITRLTFNASLVTKDGEKYEFSMIDATEYAKIDDYVKRKQMKDKSMSEELKAKSKSKGQATDGTADQPSILQEATRQMQDEKKAGVFSDDDEENDQNFEAESDLSDGSGQESSDGAEDGEEAEEDDEEDDEEEDKKGQSALNRDNSFASINGQPEQELQYKEFKEPLELEDIPIEIDNDDDEDDEDGSGVEYD [Q288A],decreasing interaction strength
5,MSKLFLDELPESLSRKIGTVVRVLPSSLEIFEELYKYALNENSNDRSGRHKKPRIDVSSDLLKTDEISETNTIFKLEGVSVLSPLRKKLDLVFYLSNVDGSPVITLLKGNDRELSIYQLNKNIKMASFLPVPEKPNLIYLFMTYTSCEDNKFSEPVVMTLNKENTLNQFKNLGLLDSNVTDFEKCVEYIRKQAILTGFKISNPFVNSTLVDTDAEKINSFHLQCHRGTKEGTLYFLPDHIIFGFKKPILLFDASDIESITYSSITRLTFNASLVTKDGEKYEFSMIDQTEYAKADDYVKRKQMKDKSMSEELKAKSKSKGQATDGTADQPSILQEATRQMQDEKKAGVFSDDDEENDQNFEAESDLSDGSGQESSDGAEDGEEAEEDDEEDDEEEDKKGQSALNRDNSFASINGQPEQELQYKEFKEPLELEDIPIEIDNDDDEDDEDGSGVEYD [I294A],disrupting interaction strength
6,MSKLFLDELPESLSRKIGTVVRVLPSSLEIFEELYKYALNENSNDRSGRHKKPRIDVSSDLLKTDEISETNTIFKLEGVSVLSPLRKKLDLVFYLSNVDGSPVITLLKGNDRELSIYQLNKNIKMASFLPVPEKPNLIYLFMTYTSCEDNKFSEPVVMTLNKENTLNQFKNLGLLDSNVTDFEKCVEYIRKQAILTGFKISNPFVNSTLVDTDAEKINSFHLQCHRGTKEGTLYFLPDHIIFGFKKPILLFDASDIESATYSSITRLTFNASLVTKDGEKYEFSMIDQTEYAKIDDYVKRKQMKDKSMSEELKAKSKSKGQATDGTADQPSILQEATRQMQDEKKAGVFSDDDEENDQNFEAESDLSDGSGQESSDGAEDGEEAEEDDEEDDEEEDKKGQSALNRDNSFASINGQPEQELQYKEFKEPLELEDIPIEIDNDDDEDDEDGSGVEYD [I259A],decreasing interaction strength

# Variants of: B1
# Conditions: with h3_yeast HHT1, P61830
# Remark: another data set of the same source
row,Variant,effect of a mutation on the interaction
1,MSKLFLDELPESLSRKIGTVVRVLPSSLEIFEELYKYALNENSNDRSGRHKKPRIDVSSDLLKTDEISETNTIFKLEGVSVLSPLRKKLDLVFYLSNVDGSPVITLLKGNDRELSIYQLNKNIKMASFLPVPEKPNLIYLFMTYTSCEDNKFSEPVVMTLNKENTLNQFKNLGLLDSNVTDFEKCVEYIRKQAILTGFKISNPFVNSTLVDTDAEKINSFHLQCHRGTKEGTLYFLPDHIIFGFKKPILLFDASDIESITYSSITRLTFNASLVTKDGEKYEFSMIDQTEYAKIDDAVKRKQMKDKSMSEELKAKSKSKGQATDGTADQPSILQEATRQMQDEKKAGVFSDDDEENDQNFEAESDLSDGSGQESSDGAEDGEEAEEDDEEDDEEEDKKGQSALNRDNSFASINGQPEQELQYKEFKEPLELEDIPIEIDNDDDEDDEDGSGVEYD [Y297A],disrupting interaction strength
2,MSKLFLDELPESLSRKIGTVVRVLPSSLEIFEELYKYALNENSNDRSGRHKKPRIDVSSDLLKTDEISETNTIFKLEGVSVLSPLRKKLDLVFYLSNVDGSPVITLLKGNDRELSIYQLNKNIKMASFLPVPEKPNLIYLFMTYTSCEDNKFSEPVVMTLNKENTLNQFKNLGLLDSNVTDFEKCVEYIRKQAILTGFKISNPFVNSTLVDTDAEKINSFHLQCHRGTKEGTLYFLPDHIIFGFKKPILLFDASDIESITYSSITRLTFNASLVTKDGEKYEFSMIDQTEYAKIADYVKRKQMKDKSMSEELKAKSKSKGQATDGTADQPSILQEATRQMQDEKKAGVFSDDDEENDQNFEAESDLSDGSGQESSDGAEDGEEAEEDDEEDDEEEDKKGQSALNRDNSFASINGQPEQELQYKEFKEPLELEDIPIEIDNDDDEDDEDGSGVEYD [D295A],disrupting interaction strength
3,MSKLFLDELPESLSRKIGTVVRVLPSSLEIFEELYKYALNENSNDRSGRHKKPRIDVSSDLLKTDEISETNTIFKLEGVSVLSPLRKKLDLVFYLSNVDGSPVITLLKGNDRELSIYQLNKNIKMASFLPVPEKPNLIYLFMTYTSCEDNKFSEPVVMTLNKENTLNQFKNLGLLDSNVTDFEKCVEYIRKQAILTGFKISNPFVNSTLVDTDAEKINSFHLQCHRGTKEGTLYFLPDHIIFGFKKPILLFDASDIESATYSSITRLTFNASLVTKDGEKYEFSMIDQTEYAKIDDYVKRKQMKDKSMSEELKAKSKSKGQATDGTADQPSILQEATRQMQDEKKAGVFSDDDEENDQNFEAESDLSDGSGQESSDGAEDGEEAEEDDEEDDEEEDKKGQSALNRDNSFASINGQPEQELQYKEFKEPLELEDIPIEIDNDDDEDDEDGSGVEYD [I259A],disrupting interaction strength

# From IntAct's records for PubMed 22307274
